According to publication PMC6459857 (Nature Communications, 2019):
Where a chain is given by its changes, count along the chain named. Numbers in names are those of the source. One block for each binder: values may come before it.

Key:
Details in all cases: both partners purified
[1] = molecular target: Cdk2/cyclin A binary complex (human, UniProt P24941 1-298; P20248 173-432); assay: single-molecule fluorescence anisotropy (smFA); BODIPY-labelled single-Cys p27, not phosphorylated, free or in complex with Cdk2/cyclin A, diluted to pM; 20 mM HEPES pH 7.5, 300 mM NaCl, 40 µM TROLOX; average anisotropy of free and complexed p27 compared
[2] = molecular target: T1, Cdk2/cyclin A binary complex (human, UniProt P24941 1-298; P20248 173-432); assay: single-molecule fluorescence anisotropy (smFA); BODIPY-labelled single-cysteine p27 in complex with Cdk2/cyclin A, freely diffusing molecules at pM concentration; 20 mM HEPES pH 7.5, 300 mM NaCl, 40 µM TROLOX
[3] = molecular target: T1, Cdk2/cyclin A binary complex; assay: FRET or BRET; single-molecule FRET (smMFD) within dual-labelled p27 in complex with Cdk2/cyclin A, freely diffusing molecules at pM concentration; 20 mM HEPES pH 7.5, 300 mM NaCl, 40 µM TROLOX
[4] = molecular target: T1, Cdk2/cyclin A binary complex; assay: ITC; 10 µM p27 or p27 Y to E variants injected into 1 µM Cdk2/cyclin A binary complex; 20 mM HEPES pH 7.5, 300 mM NaCl, 2 mM TCEP; experiments from 5 to 25 °C in intervals of 5 °C (temperature of the tabulated values not stated); single-site binding model

B1: p27-C29 (full-length p27-Y89F with the single native Cys 29, labelled with BODIPY-FL) (natural protein)
chain: MSNVRVSNGSPSLERMDARQAEHPKPSACRNLFGPVDHEELTRDLEKHARDMEEASQRKWNFDFQNHKPLEGKYEWQEVEKGSLPEFYFRPPRPPKGASKVPAQESQDVSGSRPAAPLIGAPANSEDTHLVDPKTDPSDSQTGLAEQSAGIRKRPATDDSSTQNKRANRTEENVSDGSPNAGSVEQTPKKPGLRRRQT
modifications: BODIPY-FL on Cys 29
notes: p27Kip1 (p27), human, residues 1-198 (full length), Y89F; Cys 29 kept, the other three native Cys replaced; also called p27-29C; source: E. coli, purified (Ni-NTA, His-tag removed with thrombin, reverse-phase HPLC over C4); labelled with BODIPY-FL
- binding result [1]: binds

B2: BODIPY-labeled p27-C29 (natural protein)
chain: B1 chain
modifications: BODIPY-FL on the native cysteine at 29
notes: p27Kip1 (p27), human, p27-Y89F background with the single native Cys 29 kept; also called p27–29C; source: E. coli, purified; labelled with BODIPY-FL
- binding result [2]: binds

B3: BODIPY-labeled pY88-p27-C93 (natural protein)
chain: B1 chain with C29A, R93C
modifications: phosphotyrosine at 88; BODIPY-FL on the cysteine at 93
notes: p27Kip1 (p27), human, in the Cys-less p27-Y89F background; source: E. coli, purified; labelled with BODIPY-FL; phosphorylated with ABL-KD
- binding result [2]: binds

B4: pY88-p27-C54-93 (Alexa Fluor 488 / Alexa Fluor 647 labelled) (natural protein)
chain: B1 chain with C29A, E54C, R93C
modifications: phosphotyrosine at 88; Alexa Fluor 488 maleimide and Alexa Fluor 647 maleimide on the cysteines at 54 and 93
notes: p27Kip1 (p27), human, in the Cys-less p27-Y89F background; source: E. coli, purified; dye-labelled; phosphorylated with ABL-KD
- binding result [3]: binds

B5: p27-C54 (Cys-less full-length p27-Y89F with E54C, labelled with BODIPY-FL) (natural protein)
chain: B1 chain with C29A, E54C
modifications: BODIPY-FL on Cys 54
notes: p27Kip1 (p27), human, residues 1-198 (full length), Y89F, Cys-less background, Glu 54 to Cys; also called p27-54C; source: E. coli, purified (Ni-NTA, His-tag removed with thrombin, reverse-phase HPLC over C4); labelled with BODIPY-FL
- binding result [1]: binds

B6: p27-C54-93 (Alexa Fluor 488 / Alexa Fluor 647 labelled) (natural protein)
chain: B1 chain with C29A, E54C, R93C
modifications: Alexa Fluor 488 maleimide and Alexa Fluor 647 maleimide on the cysteines at 54 and 93
notes: p27Kip1 (p27), human, in the Cys-less p27-Y89F background; also called p27-C54-C93; source: E. coli, purified; dye-labelled, dual-labelled species separated by ion-exchange chromatography
- binding result [3]: binds

B7: p27-C75 (Cys-less full-length p27-Y89F with E75C, labelled with BODIPY-FL) (natural protein)
chain: B1 chain with C29A, E75C
modifications: BODIPY-FL on Cys 75
notes: p27Kip1 (p27), human, residues 1-198 (full length), Y89F, Cys-less background, Glu 75 to Cys; also called p27-75C; source: E. coli, purified (Ni-NTA, His-tag removed with thrombin, reverse-phase HPLC over C4); labelled with BODIPY-FL
- binding result [1]: binds

B10: Y74E/Y88E-p27 (natural protein)
chain: B1 chain with A49C, Y74E, Y88E, S99C, S148C
notes: p27Kip1 (p27), human, residues 1–198 (full length); also called Y88E/Y74E; dual Y phosphomimetic p27; source: E. coli, purified (Ni2+-NTA, His-tag removed with thrombin, reverse-phase HPLC over C4 resin)
- Kd [4]: 14 nM
- dH [4]: -34.4 kcal/mol

Other lines, results leading:

- binding result [2]: binds
B8: BODIPY-labeled p27-C93 (natural protein)
chain: B1 chain with C29A, R93C
modifications: BODIPY-FL on the cysteine at 93
notes: p27Kip1 (p27), human, in the Cys-less p27-Y89F background; source: E. coli, purified; labelled with BODIPY-FL

- binding result [1]: binds
B9: p27-C93 (Cys-less full-length p27-Y89F with R93C, labelled with BODIPY-FL) (natural protein)
chain: B1 chain with C29A, R93C
modifications: BODIPY-FL on Cys 93
notes: p27Kip1 (p27), human, residues 1-198 (full length), Y89F, Cys-less background, Arg 93 to Cys; also called p27-93C; source: E. coli, purified (Ni-NTA, His-tag removed with thrombin, reverse-phase HPLC over C4); labelled with BODIPY-FL

- binding result [3]: binds
B11: p27-C29-54 (Alexa Fluor 488 / Alexa Fluor 647 labelled) (natural protein)
chain: B1 chain with E54C
modifications: Alexa Fluor 488 maleimide and Alexa Fluor 647 maleimide on the cysteines at 29 and 54
notes: p27Kip1 (p27), human, p27-Y89F background with the native Cys 29 kept; source: E. coli, purified; dye-labelled, dual-labelled species separated by ion-exchange chromatography

- binding result [3]: binds
B12: p27-C75-110 (Alexa Fluor 488 / Alexa Fluor 647 labelled) (natural protein)
chain: B1 chain with C29A, E75C, S110C
modifications: Alexa Fluor 488 maleimide and Alexa Fluor 647 maleimide on the cysteines at 75 and 110
notes: p27Kip1 (p27), human, in the Cys-less p27-Y89F background; source: E. coli, purified; dye-labelled, dual-labelled species separated by ion-exchange chromatography

- binding result [1]: binds
B13: p27-C40 (Cys-less full-length p27-Y89F with E40C, labelled with BODIPY-FL) (natural protein)
chain: B1 chain with C29A, E40C
modifications: BODIPY-FL on Cys 40
notes: p27Kip1 (p27), human, residues 1-198 (full length), Y89F, Cys-less background, Glu 40 to Cys; also called p27-40C; source: E. coli, purified (Ni-NTA, His-tag removed with thrombin, reverse-phase HPLC over C4); labelled with BODIPY-FL
